B1: IgG1 full-length heavy chain with E345R/K360E/D399M/Y407A/K409V (SEQ ID NO: 58) with light chain SEQ ID NO: 61 (antibody)
heavy: QVQLQESGPGLVRPSQTLSLTCTVSGYSITSDHAWSWVRQPPGRGLEWIGYISYSGITTYNPSLKSRVTMLRDTSKNQFSLRLSSVTAADTAVYYCARSLARTTAMDYWGQGSLVTVSSASTKGPSVFPLAPSSKSTSGGTAALGCLVKDYFPEPVTVSWNSGALTSGVHTFPAVLQSSGLYSLSSVVTVPSSSLGTQTYICNVNHKPSNTKVDKRVEPKSCDKTHTCPPCPAPELLGGPSVFLFPPKPKDTLMISRTPEVTCVVVDVSHEDPEVKFNWYVDGVEVHNAKTKPREEQYNSTYRVVSVLTVLHQDWLNGKEYKCKVSNKALPAPIEKTISKAKGQPRRPQVYTLPPSREEMTENQVSLTCLVKGFYPSDIAVEWESNGQPENNYKTTPPVLMSDGSFFLASVLTVDKSRWQQGNVFSCSVMHEALHNHYTQKSLSLSP
light: not shown
B2: IgG1 full-length heavy chain with Q347R/K360E/D399V/F405T/K409W (SEQ ID NO: 31) with light chain SEQ ID NO: 61 (antibody)
heavy: QVQLQESGPGLVRPSQTLSLTCTVSGYSITSDHAWSWVRQPPGRGLEWIGYISYSGITTYNPSLKSRVTMLRDTSKNQFSLRLSSVTAADTAVYYCARSLARTTAMDYWGQGSLVTVSSASTKGPSVFPLAPSSKSTSGGTAALGCLVKDYFPEPVTVSWNSGALTSGVHTFPAVLQSSGLYSLSSVVTVPSSSLGTQTYICNVNHKPSNTKVDKRVEPKSCDKTHTCPPCPAPELLGGPSVFLFPPKPKDTLMISRTPEVTCVVVDVSHEDPEVKFNWYVDGVEVHNAKTKPREEQYNSTYRVVSVLTVLHQDWLNGKEYKCKVSNKALPAPIEKTISKAKGQPREPRVYTLPPSREEMTENQVSLTCLVKGFYPSDIAVEWESNGQPENNYKTTPPVLVSDGSFTLYSWLTVDKSRWQQGNVFSCSVMHEALHNHYTQKSLSLSP
light: not shown
B3: IgG1 full-length heavy chain with T350V/L351Y/T366L/K392L/T394W/F405A/Y407V (SEQ ID NO: 60) with light chain SEQ ID NO: 61 (antibody)
heavy: QVQLQESGPGLVRPSQTLSLTCTVSGYSITSDHAWSWVRQPPGRGLEWIGYISYSGITTYNPSLKSRVTMLRDTSKNQFSLRLSSVTAADTAVYYCARSLARTTAMDYWGQGSLVTVSSASTKGPSVFPLAPSSKSTSGGTAALGCLVKDYFPEPVTVSWNSGALTSGVHTFPAVLQSSGLYSLSSVVTVPSSSLGTQTYICNVNHKPSNTKVDKRVEPKSCDKTHTCPPCPAPELLGGPSVFLFPPKPKDTLMISRTPEVTCVVVDVSHEDPEVKFNWYVDGVEVHNAKTKPREEQYNSTYRVVSVLTVLHQDWLNGKEYKCKVSNKALPAPIEKTISKAKGQPREPQVYVYPPSREEMTKNQVSLLCLVKGFYPSDIAVEWESNGQPENNYLTWPPVLDSDGSFALVSKLTVDKSRWQQGNVFSCSVMHEALHNHYTQKSLSLSP
light: not shown
B4: IgG1 full-length heavy chain with K392D/D399K/K409D (SEQ ID NO: 50) with light chain SEQ ID NO: 61 (antibody)
heavy: QVQLQESGPGLVRPSQTLSLTCTVSGYSITSDHAWSWVRQPPGRGLEWIGYISYSGITTYNPSLKSRVTMLRDTSKNQFSLRLSSVTAADTAVYYCARSLARTTAMDYWGQGSLVTVSSASTKGPSVFPLAPSSKSTSGGTAALGCLVKDYFPEPVTVSWNSGALTSGVHTFPAVLQSSGLYSLSSVVTVPSSSLGTQTYICNVNHKPSNTKVDKRVEPKSCDKTHTCPPCPAPELLGGPSVFLFPPKPKDTLMISRTPEVTCVVVDVSHEDPEVKFNWYVDGVEVHNAKTKPREEQYNSTYRVVSVLTVLHQDWLNGKEYKCKVSNKALPAPIEKTISKAKGQPREPQVYTLPPSREEMTKNQVSLTCLVKGFYPSDIAVEWESNGQPENNYDTTPPVLKSDGSFFLYSDLTVDKSRWQQGNVFSCSVMHEALHNHYTQKSLSLSP
light: not shown
B5: IgG1 full-length heavy chain with Q347E/S354Y/T366Y/Y407T (SEQ ID NO: 39) with light chain SEQ ID NO: 61 (antibody)
heavy: QVQLQESGPGLVRPSQTLSLTCTVSGYSITSDHAWSWVRQPPGRGLEWIGYISYSGITTYNPSLKSRVTMLRDTSKNQFSLRLSSVTAADTAVYYCARSLARTTAMDYWGQGSLVTVSSASTKGPSVFPLAPSSKSTSGGTAALGCLVKDYFPEPVTVSWNSGALTSGVHTFPAVLQSSGLYSLSSVVTVPSSSLGTQTYICNVNHKPSNTKVDKRVEPKSCDKTHTCPPCPAPELLGGPSVFLFPPKPKDTLMISRTPEVTCVVVDVSHEDPEVKFNWYVDGVEVHNAKTKPREEQYNSTYRVVSVLTVLHQDWLNGKEYKCKVSNKALPAPIEKTISKAKGQPREPEVYTLPPYREEMTKNQVSLYCLVKGFYPSDIAVEWESNGQPENNYKTTPPVLDSDGSFFLTSKLTVDKSRWQQGNVFSCSVMHEALHNHYTQKSLSLSP
light: not shown
B6: IgG1 full-length heavy chain with K392L/T394W/F405A/Y407V (SEQ ID NO: 41) with light chain SEQ ID NO: 61 (antibody)
heavy: QVQLQESGPGLVRPSQTLSLTCTVSGYSITSDHAWSWVRQPPGRGLEWIGYISYSGITTYNPSLKSRVTMLRDTSKNQFSLRLSSVTAADTAVYYCARSLARTTAMDYWGQGSLVTVSSASTKGPSVFPLAPSSKSTSGGTAALGCLVKDYFPEPVTVSWNSGALTSGVHTFPAVLQSSGLYSLSSVVTVPSSSLGTQTYICNVNHKPSNTKVDKRVEPKSCDKTHTCPPCPAPELLGGPSVFLFPPKPKDTLMISRTPEVTCVVVDVSHEDPEVKFNWYVDGVEVHNAKTKPREEQYNSTYRVVSVLTVLHQDWLNGKEYKCKVSNKALPAPIEKTISKAKGQPREPQVYTLPPSREEMTKNQVSLTCLVKGFYPSDIAVEWESNGQPENNYLTWPPVLDSDGSFALVSKLTVDKSRWQQGNVFSCSVMHEALHNHYTQKSLSLSP
light: not shown
notes: also called Sample No. 200 full-length heavy chain
B7: IgG1 full-length heavy chain with E356K/K392D/D399K/K409D (SEQ ID NO: 56) with light chain SEQ ID NO: 61 (antibody)
heavy: QVQLQESGPGLVRPSQTLSLTCTVSGYSITSDHAWSWVRQPPGRGLEWIGYISYSGITTYNPSLKSRVTMLRDTSKNQFSLRLSSVTAADTAVYYCARSLARTTAMDYWGQGSLVTVSSASTKGPSVFPLAPSSKSTSGGTAALGCLVKDYFPEPVTVSWNSGALTSGVHTFPAVLQSSGLYSLSSVVTVPSSSLGTQTYICNVNHKPSNTKVDKRVEPKSCDKTHTCPPCPAPELLGGPSVFLFPPKPKDTLMISRTPEVTCVVVDVSHEDPEVKFNWYVDGVEVHNAKTKPREEQYNSTYRVVSVLTVLHQDWLNGKEYKCKVSNKALPAPIEKTISKAKGQPREPQVYTLPPSRKEMTKNQVSLTCLVKGFYPSDIAVEWESNGQPENNYDTTPPVLKSDGSFFLYSDLTVDKSRWQQGNVFSCSVMHEALHNHYTQKSLSLSP
light: not shown
B8: IgG1 full-length heavy chain with E356K/D399K/K409E/K439E (SEQ ID NO: 36) with light chain SEQ ID NO: 61 (antibody)
heavy: QVQLQESGPGLVRPSQTLSLTCTVSGYSITSDHAWSWVRQPPGRGLEWIGYISYSGITTYNPSLKSRVTMLRDTSKNQFSLRLSSVTAADTAVYYCARSLARTTAMDYWGQGSLVTVSSASTKGPSVFPLAPSSKSTSGGTAALGCLVKDYFPEPVTVSWNSGALTSGVHTFPAVLQSSGLYSLSSVVTVPSSSLGTQTYICNVNHKPSNTKVDKRVEPKSCDKTHTCPPCPAPELLGGPSVFLFPPKPKDTLMISRTPEVTCVVVDVSHEDPEVKFNWYVDGVEVHNAKTKPREEQYNSTYRVVSVLTVLHQDWLNGKEYKCKVSNKALPAPIEKTISKAKGQPREPQVYTLPPSRKEMTKNQVSLTCLVKGFYPSDIAVEWESNGQPENNYKTTPPVLKSDGSFFLYSELTVDKSRWQQGNVFSCSVMHEALHNHYTQESLSLSP
light: not shown
B9: IgG1 full-length heavy chain with E345R/Q347R/K360D/T366V/D399M/Y407A/K409V (SEQ ID NO: 55) with light chain SEQ ID NO: 61 (antibody)
heavy: QVQLQESGPGLVRPSQTLSLTCTVSGYSITSDHAWSWVRQPPGRGLEWIGYISYSGITTYNPSLKSRVTMLRDTSKNQFSLRLSSVTAADTAVYYCARSLARTTAMDYWGQGSLVTVSSASTKGPSVFPLAPSSKSTSGGTAALGCLVKDYFPEPVTVSWNSGALTSGVHTFPAVLQSSGLYSLSSVVTVPSSSLGTQTYICNVNHKPSNTKVDKRVEPKSCDKTHTCPPCPAPELLGGPSVFLFPPKPKDTLMISRTPEVTCVVVDVSHEDPEVKFNWYVDGVEVHNAKTKPREEQYNSTYRVVSVLTVLHQDWLNGKEYKCKVSNKALPAPIEKTISKAKGQPRRPRVYTLPPSREEMTDNQVSLVCLVKGFYPSDIAVEWESNGQPENNYKTTPPVLMSDGSFFLASVLTVDKSRWQQGNVFSCSVMHEALHNHYTQKSLSLSP
light: not shown
B10: IgG1 full-length heavy chain with E356K/K392D/D399K/K439E (SEQ ID NO: 48) with light chain SEQ ID NO: 61 (antibody)
heavy: QVQLQESGPGLVRPSQTLSLTCTVSGYSITSDHAWSWVRQPPGRGLEWIGYISYSGITTYNPSLKSRVTMLRDTSKNQFSLRLSSVTAADTAVYYCARSLARTTAMDYWGQGSLVTVSSASTKGPSVFPLAPSSKSTSGGTAALGCLVKDYFPEPVTVSWNSGALTSGVHTFPAVLQSSGLYSLSSVVTVPSSSLGTQTYICNVNHKPSNTKVDKRVEPKSCDKTHTCPPCPAPELLGGPSVFLFPPKPKDTLMISRTPEVTCVVVDVSHEDPEVKFNWYVDGVEVHNAKTKPREEQYNSTYRVVSVLTVLHQDWLNGKEYKCKVSNKALPAPIEKTISKAKGQPREPQVYTLPPSRKEMTKNQVSLTCLVKGFYPSDIAVEWESNGQPENNYDTTPPVLKSDGSFFLYSKLTVDKSRWQQGNVFSCSVMHEALHNHYTQESLSLSP
light: not shown
B11: IgG4 full-length heavy chain with K392L/T394W/F405A/Y407V (SEQ ID NO: 96) with light chain SEQ ID NO: 61 (antibody)
heavy: QVQLQESGPGLVRPSQTLSLTCTVSGYSITSDHAWSWVRQPPGRGLEWIGYISYSGITTYNPSLKSRVTMLRDTSKNQFSLRLSSVTAADTAVYYCARSLARTTAMDYWGQGSLVTVSSASTKGPSVFPLAPCSRSTSESTAALGCLVKDYFPEPVTVSWNSGALTSGVHTFPAVLQSSGLYSLSSVVTVPSSSLGTKTYTCNVDHKPSNTKVDKRVESKYGPPCPPCPAPEFLGGPSVFLFPPKPKDTLMISRTPEVTCVVVDVSQEDPEVQFNWYVDGVEVHNAKTKPREEQFNSTYRVVSVLTVLHQDWLNGKEYKCKVSNKGLPSSIEKTISKAKGQPREPQVYTLPPSQEEMTKNQVSLTCLVKGFYPSDIAVEWESNGQPENNYLTWPPVLDSDGSFALVSRLTVDKSRWQEGNVFSCSVMHEALHNHYTQKSLSLSL
light: not shown
B12: IgG4 full-length heavy chain with K392D/D399K/R409D (SEQ ID NO: 97) with light chain SEQ ID NO: 61 (antibody)
heavy: QVQLQESGPGLVRPSQTLSLTCTVSGYSITSDHAWSWVRQPPGRGLEWIGYISYSGITTYNPSLKSRVTMLRDTSKNQFSLRLSSVTAADTAVYYCARSLARTTAMDYWGQGSLVTVSSASTKGPSVFPLAPCSRSTSESTAALGCLVKDYFPEPVTVSWNSGALTSGVHTFPAVLQSSGLYSLSSVVTVPSSSLGTKTYTCNVDHKPSNTKVDKRVESKYGPPCPPCPAPEFLGGPSVFLFPPKPKDTLMISRTPEVTCVVVDVSQEDPEVQFNWYVDGVEVHNAKTKPREEQFNSTYRVVSVLTVLHQDWLNGKEYKCKVSNKGLPSSIEKTISKAKGQPREPQVYTLPPSQEEMTKNQVSLTCLVKGFYPSDIAVEWESNGQPENNYDTTPPVLKSDGSFFLYSDLTVDKSRWQEGNVFSCSVMHEALHNHYTQKSLSLSL
light: not shown
notes: also called Sample No. 193 full-length heavy chain

The data set deals with the molecule itself. Nature of the data set: SEC peak area ratio after coexpression of full-length heavy chain, light chain and Fc fragment.
In the case of B1, the “Homo full-length heavy chain (%)” value was determined as 70.3%.

Turning to B2, the “Homo full-length heavy chain (%)” value came out at 72.1%.

On to B3, for which the “Homo full-length heavy chain (%)” value stood at 71.9%.

B4: the “Homo full-length heavy chain (%)” value turned out to be 76.8%.

B5: the “Homo full-length heavy chain (%)” value turned out to be 70.4%.

Turning to B6, the “Homo full-length heavy chain (%)” value stood at 72.7%.

B7: the “Homo full-length heavy chain (%)” value was 70.7%.

On to B8, for which the “Homo full-length heavy chain (%)” value came to 73.3%.

With B9, the “Homo full-length heavy chain (%)” value was determined as 70.7%.

Consider B10, for which the “Homo full-length heavy chain (%)” value is 69.6%.

In the case of B11, the “Homo full-length heavy chain (%)” value amounted to 66.2%.

On to B12, for which the “Homo full-length heavy chain (%)” value was found to be 64.5%.

These data come from patent publication US20260217835A1 (published 2026).
